B1: MYL5 (parent)
chain: DVAGNLDYKALSYVITHGEEKEE
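Also: lentivirally expressed fusions sorted by FACS into six bins by GFP to DsRed ratio, PSI derived from sequencing read proportions per bin multiplied by bin number.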

Variants of: B1
Test: protein stability index of a GFP-peptide fusion (GPS, HEK-293T) (PSI 1-6); higher = more stable
Conditions: c terminus: native
With DVAGNLDYKALSYVISHGEEKEE [T16S] the protein stability index was 1.89. DVAGNLDYKALSQVITHGEEKEE [Y13Q] showed a protein stability index of 2.33. DVAGNLDYKALSYVTTHGEEKEE [I15T] gave a protein stability index of 2.81. DVAGNLDYKALSYVGTHGEEKEE [I15G] gave a protein stability index of 2.31. Work on DEAGNLDYKALSYVITHGEEKEE [V2E] yielded a protein stability index of 1.35. With DVAGNLDYKKLSYVITHGEEKEE [A10K] the protein stability index was 3.21. For DVAGNLDYKAHSYVITHGEEKEE [L11H], the protein stability index was 2.75. DVLGNLDYKALSYVITHGEEKEE [A3L] showed a protein stability index of 2.31. For DVAGNLDYKAASYVITHGEEKEE [L11A], the protein stability index was 2.56. Variant DVAGNLDYKALSYIITHGEEKEE [V14I] has a protein stability index of 3.02. DVAGNLDYKALSYVITHIEEKEE [G18I] gave a protein stability index of 2.42. For DVQGNLDYKALSYVITHGEEKEE [A3Q], the protein stability index was 1.75. DVAGNLDYKALSYCITHGEEKEE [V14C] showed a protein stability index of 2.07. In the case of DVAGNLDYKALSYVITHGEEKEK [E23K], the protein stability index is reported as 3.3. For DVAGNLDYKALSYVITHGEEKFE [E22F], the protein stability index was 4.43. In the case of DVAGNLDYKALSYVITHGLEKEE [E19L], the protein stability index is reported as 2.9. Variant DVAGNLDYKALSYVITHGEEGEE [K21G] has a protein stability index of 3.52. DVAGNLDYKALSYVITHGEEKSE [E22S] showed a protein stability index of 4.46. DVAGNLDYKALSYVITHGEEKRE [E22R] showed a protein stability index of 4.24. Variant DVAGNLDYKALKYVITHGEEKEE [S12K] has a protein stability index of 2.3. For DVAGNLDEKALSYVITHGEEKEE [Y8E], the protein stability index was 2.01. MVAGNLDYKALSYVITHGEEKEE [D1M] showed a protein stability index of 1.65. With DVNGNLDYKALSYVITHGEEKEE [A3N] the protein stability index was 1.54. With DVAGNLDYKALSYVITNGEEKEE [H17N] the protein stability index was 3.23. In the case of DVCGNLDYKALSYVITHGEEKEE [A3C], the protein stability index is reported as 1.29. Variant DVAGNLDYKALSYVICHGEEKEE [T16C] has a protein stability index of 1.53. DVAGNLDYKALSYVITSGEEKEE [H17S] gave a protein stability index of 3.05. With DVAGNWDYKALSYVITHGEEKEE [L6W] the protein stability index was 1.72. Variant DVAGNLDYKAVSYVITHGEEKEE [L11V] has a protein stability index of 1.88. Variant DVAGNLDYKALSYVITCGEEKEE [H17C] has a protein stability index of 1.67. With DVAGNLDYKALSYVVTHGEEKEE [I15V] the protein stability index was 2.59. DVAGNLDYKALSYVITHGEEKCE [E22C] gave a protein stability index of 4.34. DVAGNLDYNALSYVITHGEEKEE [K9N] gave a protein stability index of 2.01. In the case of DVAGNLDYKALSYVITHGEEKEG [E23G], the protein stability index is reported as 4.37. With DSAGNLDYKALSYVITHGEEKEE [V2S] the protein stability index was 1.82. With DVAGMLDYKALSYVITHGEEKEE [N5M] the protein stability index was 1.3. Work on DVAGNKDYKALSYVITHGEEKEE [L6K] yielded a protein stability index of 2.06. For DVAGNLDYCALSYVITHGEEKEE [K9C], the protein stability index was 3.09. DVAGNLDYGALSYVITHGEEKEE [K9G] showed a protein stability index of 1.98. DVAGNLDYKDLSYVITHGEEKEE [A10D] showed a protein stability index of 2.09. DVAGNDDYKALSYVITHGEEKEE [L6D] gave a protein stability index of 2.06. Work on DVAGNLDYKALSYVITHGEEKEH [E23H] yielded a protein stability index of 2.67. With DVAGNADYKALSYVITHGEEKEE [L6A] the protein stability index was 2.55. DVAGNLDYKALSYVIHHGEEKEE [T16H] gave a protein stability index of 2.48. DVAGNLDYKANSYVITHGEEKEE [L11N] gave a protein stability index of 2.23. Work on DVAGNLDYKALSYVITHGEKKEE [E20K] yielded a protein stability index of 2.05. DVAGNLDYKALSYVFTHGEEKEE [I15F] gave a protein stability index of 2.49. In the case of DVAGNLYYKALSYVITHGEEKEE [D7Y], the protein stability index is reported as 2.1. With DVAGNLDYKAMSYVITHGEEKEE [L11M] the protein stability index was 1.15. For DVAGNLDYKALSYVITQGEEKEE [H17Q], the protein stability index was 1.96. For DVANNLDYKALSYVITHGEEKEE [G4N], the protein stability index was 1.51. Work on DVAGNLMYKALSYVITHGEEKEE [D7M] yielded a protein stability index of 2.11. Work on DVEGNLDYKALSYVITHGEEKEE [A3E] yielded a protein stability index of 2.1. DVAGNLDYKALSYVITHCEEKEE [G18C] showed a protein stability index of 1.68. With DVAGNLDYKALSYVITTGEEKEE [H17T] the protein stability index was 2.12. For DVAGNLDYKALSYVITHGEETEE [K21T], the protein stability index was 2.05. DVAGNLDYKALSYVITHGTEKEE [E19T] showed a protein stability index of 3.2. DVAGNLDYKALSPVITHGEEKEE [Y13P] showed a protein stability index of 3.39. DVATNLDYKALSYVITHGEEKEE [G4T] gave a protein stability index of 2.42. For DVAGNLDYKALSYVITHTEEKEE [G18T], the protein stability index was 1.78. HVAGNLDYKALSYVITHGEEKEE [D1H] showed a protein stability index of 3.37. With DVAGNLDYVALSYVITHGEEKEE [K9V] the protein stability index was 2.67. Variant DVAGNLIYKALSYVITHGEEKEE [D7I] has a protein stability index of 1.44. In the case of DVAGNLDYKALSYVITHGEEKEL [E23L], the protein stability index is reported as 2.42. For DVAGNLDYKTLSYVITHGEEKEE [A10T], the protein stability index was 1.9. DVAGNLDYKMLSYVITHGEEKEE [A10M] gave a protein stability index of 2.23. With DVAGNLDQKALSYVITHGEEKEE [Y8Q] the protein stability index was 1.98. DVAGNLDYKAPSYVITHGEEKEE [L11P] gave a protein stability index of 2.45. With DVAGNLSYKALSYVITHGEEKEE [D7S] the protein stability index was 2.5. DVAGNLDYKALSYMITHGEEKEE [V14M] showed a protein stability index of 1.24. DVAGNLDYKAISYVITHGEEKEE [L11I] gave a protein stability index of 1.93. For DVAGNLDYKASSYVITHGEEKEE [L11S], the protein stability index was 1.36. In the case of DVAGNLDYKALSYVITHGEDKEE [E20D], the protein stability index is reported as 1.91. DWAGNLDYKALSYVITHGEEKEE [V2W] gave a protein stability index of 4.54. Work on DVAGNLDYKALSYFITHGEEKEE [V14F] yielded a protein stability index of 2.25. In the case of DVAHNLDYKALSYVITHGEEKEE [G4H], the protein stability index is reported as 2.09. In the case of DVAGNLDCKALSYVITHGEEKEE [Y8C], the protein stability index is reported as 2.32. For DVAGNLDYKALSYVITHGEEKEF [E23F], the protein stability index was 2.69. DVAGLLDYKALSYVITHGEEKEE [N5L] showed a protein stability index of 3.25. In the case of DVAGNLDYKPLSYVITHGEEKEE [A10P], the protein stability index is reported as 2.28. DVAGNLDYKALSYKITHGEEKEE [V14K] gave a protein stability index of 2.5. DVAGNLDYKALSYVITHHEEKEE [G18H] gave a protein stability index of 1.7. In the case of DKAGNLDYKALSYVITHGEEKEE [V2K], the protein stability index is reported as 1.82. DVALNLDYKALSYVITHGEEKEE [G4L] gave a protein stability index of 2.03. For DVAGNLDYKAYSYVITHGEEKEE [L11Y], the protein stability index was 2.08. With DVAGNLDYLALSYVITHGEEKEE [K9L] the protein stability index was 2.75. For DVAGNLDYKALSYVITHGMEKEE [E19M], the protein stability index was 1.08. Work on DPAGNLDYKALSYVITHGEEKEE [V2P] yielded a protein stability index of 1.67. Variant DTAGNLDYKALSYVITHGEEKEE [V2T] has a protein stability index of 2. For DVAGNLDYKALSYVITHGEMKEE [E20M], the protein stability index was 1.77. DVAGNLDYKALSLVITHGEEKEE [Y13L] showed a protein stability index of 2.01. DVAGNLDYKALSYVITHGEEKVE [E22V] gave a protein stability index of 4.09. In the case of DDAGNLDYKALSYVITHGEEKEE [V2D], the protein stability index is reported as 2.19. For DVAGNLDYKALSYVITHGEEKEQ [E23Q], the protein stability index was 4.85. Work on DVAGVLDYKALSYVITHGEEKEE [N5V] yielded a protein stability index of 2.05. DVAGNLDYKALEYVITHGEEKEE [S12E] gave a protein stability index of 2.13. For DVAGNLDYAALSYVITHGEEKEE [K9A], the protein stability index was 2.29.

From the supplement of paper PMC10567573
